US20120183527A1

What was measured:
[1] = target: biotinylated Aβ oligomer bound to Neutravidin (Aβ42 oligomer SPR sensor) (UniProt P05067); experiment: SPR, biotin-tagged Aβ on Neutravidin sensor (Oligomer sensor)
[2] = target: C-terminal monomer (Aβ monomer coupled at the carboxyl terminus) (UniProt P05067); experiment: SPR, biotin-tagged Aβ on Neutravidin sensor (C-terminal monomer sensor)
[3] = target: N-terminal monomer (Aβ monomer coupled at the amino terminus) (UniProt P05067); experiment: SPR, biotin-tagged Aβ on Neutravidin sensor (N-terminal monomer sensor)
Sequence of N-terminal monomer (Aβ monomer coupled at the amino terminus) (P05067 672-713): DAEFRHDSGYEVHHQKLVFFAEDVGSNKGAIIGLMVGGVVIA

[4] = target: Aβ fibril (Aβ42 fibril) (UniProt P05067); experiment: ELISA, Aβ fibril plate, fitted maximum
Sequence of Aβ fibril (Aβ42 fibril) (P05067 672-713 limits assumed): as the sequence (P05067 672-713) above

[5] = target: Aβ monomer peptide (Aβ42 Peptide Monomer) on ELISA plates (UniProt P05067); experiment: ELISA, Aβ monomer plate, fitted maximum
Sequence of Aβ monomer peptide (Aβ42 Peptide Monomer) on ELISA plates (P05067 672-713 limits assumed): as the sequence (P05067 672-713) above

[6] = target: globular Aβ oligomer (Aβ42 oligomers) on ELISA plates (UniProt P05067); experiment: ELISA, Aβ oligomer plate, fitted maximum
Sequence of globular Aβ oligomer (Aβ42 oligomers) on ELISA plates (P05067 672-713 limits assumed): as the sequence (P05067 672-713) above

[7] = target: Aβ fibril (Aβ42 fibril) (UniProt P05067); experiment: ELISA, Aβ fibril plate, typical half maximum titer
[8] = target: Aβ monomer peptide (Aβ42 Peptide Monomer) on ELISA plates (UniProt P05067); experiment: ELISA, Aβ monomer plate, typical half maximum titer
[9] = target: globular Aβ oligomer (Aβ42 oligomers) on ELISA plates (UniProt P05067); experiment: ELISA, Aβ oligomer plate, typical half maximum titer
[10] = target: Aβ fibril (Aβ42 fibril) (UniProt P05067); experiment: ELISA half-max titer, Aβ fibril plate against blank plate
[11] = target: Aβ monomer peptide (Aβ42 Peptide Monomer) on ELISA plates (UniProt P05067); experiment: ELISA half-max titer, Aβ monomer plate against blank plate
[12] = target: globular Aβ oligomer (Aβ42 oligomers) on ELISA plates (UniProt P05067); experiment: ELISA half-max titer, Aβ oligomer plate against blank plate
[13] = target: Aβ fibril (Aβ42 fibril) (UniProt P05067); experiment: ELISA, best fit of curves, blank plate against Aβ fibril plate
[14] = target: Aβ monomer peptide (Aβ42 Peptide Monomer) on ELISA plates (UniProt P05067); experiment: ELISA, best fit of curves, blank plate against Aβ monomer plate
[15] = target: globular Aβ oligomer (Aβ42 oligomers) on ELISA plates (UniProt P05067); experiment: ELISA, best fit of curves, blank plate against Aβ oligomer plate
[16] = target: Aβ monomer peptide (Aβ42 Peptide Monomer) on ELISA plates (UniProt P05067); experiment: competition ELISA on Aβ monomer plates, IVIG in 3-fold dilutions from 1 mg/ml, competitor thyroglobulin 40 µg/ml
[17] = target: globular Aβ oligomer (Aβ42 oligomers) on ELISA plates (UniProt P05067); experiment: ELISA on globular Aβ oligomer plates with chaotropic salt elution (avidity); this end, printed '>4M', is untreated IVIG (50% not reached at 4M, the highest concentration used)

Sequence of biotinylated Aβ oligomer bound to Neutravidin (Aβ42 oligomer SPR sensor) (P05067 672-713 limits assumed): as the sequence (P05067 672-713) above
Sequence of C-terminal monomer (Aβ monomer coupled at the carboxyl terminus) (P05067 672-713): as above

Kd [1] [nM] | Kd [2] [nM] | Kd [3] [nM] | maximum binding value (A450 nm units) [4] | maximum binding value (A450 nm units) [5] | maximum binding value (A450 nm units) [6] | half maximum titer [7] | half maximum titer [8] | half maximum titer [9] | fold by which the blank plate half maximum binding titer is lower than the titer on this plate [10] [fold] | fold by which the blank plate half maximum binding titer is lower than the titer on this plate [11] [fold] | fold by which the blank plate half maximum binding titer is lower than the titer on this plate [12] [fold] | fold by which maximum binding on blank plates exceeds that on the amyloid plate [13] [fold] | fold by which maximum binding on blank plates exceeds that on the amyloid plate [14] [fold] | fold by which maximum binding on blank plates exceeds that on the amyloid plate [15] [fold] | percent of control binding in presence of competitor [16] [%] | ammonium thiocyanate concentration for 50% maximal binding [17] [M] | Substance
69 | 47 | 158 | – | – | – | – | – | – | – | – | – | – | – | – | – | – | 6E10 monoclonal anti-Aβ antibody
– | – | – | 2.82 | 2.7 | 2.88 | 15.8 | 42.8 | 9.42 | 6.5 | 17.6 | 3.9 | 1.6 | 1.6 | 1.6 | 50 | 4 | intravenous immunoglobulin (IVIG; Gammagard Liquid, Baxter) (antibody)
